Measured values published in patent US20220112288A1 (published 2022).
Where a chain is given by its changes, count along the chain named.

B1: 75110_01A06A (antibody, V domains shown)
VH: EVQLVESGGGLVQPGGSLRLSCAASGFTFSSYWMSWVRQAPGKGLEWVANINEDGNEKYYVDSVKGRLTISRDNAKNSLYLQMNSLRAEDTAVYFCAREGGQWLSLDYWGQGALVTVSS
VL: DIQMTQSPSSVSASVGDRVSITCRASQGISSWLAWYQQKPGKAPKILIYGASSLQSGVPSRFSGSGSGTDFTLTISSLQPEDFATYYCQQANSFPWTFGQGTKVEIK
notes: Tested as antibody purified from AlivaMab Mouse hybridoma supernatant (captured by anti-mouse IgG Fc)
B2: 75110_02N15A (antibody, V domains shown)
VH: B1 VH with L68F, Y80F, S105A, Y108H
VL: B1 VL with S20T, I46F, Y49S, I106F
notes: as for B1
B3: 75110_03D16A (antibody, V domains shown)
VH: B1 VH with E53Q, N56G, L68F, F95Y, A97V, S105A, A113T
VL: B1 VL with S20T, A34T, I46F, G50A, S67F
notes: as for B1
B4: 75110_04K10A (antibody, V domains shown)
VH: B1 VH with E53Q, N56S, L68F, M83L, V93M, F95Y, A113T
VL: B1 VL with S20T, I46V, A51V, L54F, T72I
notes: as for B1
B5: 75110_01D24A (antibody, V domains shown)
VH: QVQLQQWGAGLLKPSETLSLTCAVYGGSFSGYYWSWIRQPPGKGLEWIGEINHSGSTNYNPSLKSRVTISVDTSENQFSLKLNSVTAADTAVYYCARLVNWFDPWGQGTLVTVSS
VL: EIQMTQSPSSVSASVGDRVTITCRASQDISNWLAWYQQKPGKAPNLLIFAASSLQTGVPSRFSGSGSGTDFTLTISSLQPDDFATYYCQQANSFPYSFGQGTNLGIK
notes: as for B1
B6: 75110_03L12A (antibody, V domains shown)
VH: B5 VH with K81T, N83I, A96V, V99I
VL: B5 VL with E1D, N45K, T56S, S97T
notes: as for B1
B7: 75110_04F22A (antibody, V domains shown)
VH: EVQLVESGGGLVQPGGSLRLSCAASGFTFSSYDIHWVRQATGKGLEWVSTIGTAGDTYYPGSVKGRFTISRENAKNSLYLQMNSLRAGDTAVYYCARGGYYYYGMDVWGQGTTVTVSS
VL: EIVLTQSPGTLSLSPGERATLSCRASQSVYSSYLAWYQQKPGQAPRLLIYGASSRATGIPDRFSGSGSGTDFTLTISRLEPEDFAVYYCQQFGTSPFTFGPGTKVDIK
notes: as for B1
B8: 75110_01E08A (antibody, V domains shown)
VH: B7 VH with S30N, S31N, I34M, G61A, S70Y, Y100D
VL: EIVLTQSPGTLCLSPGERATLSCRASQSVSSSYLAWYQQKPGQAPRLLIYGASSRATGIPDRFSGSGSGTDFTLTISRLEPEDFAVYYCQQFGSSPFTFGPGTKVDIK
notes: as for B1
B9: 75110_01G11A (antibody, V domains shown)
VH: B7 VH with I34M, K75R, Y79F, Y100D
VL: B7 VL with S14F, S28N, V29T, S54N, F92H
notes: as for B1
B10: 75110_01J17A (antibody, V domains shown)
VH: B7 VH with I34M, A40G, G55D, K75E, Y100D
VL: B7 VL with T5A, S31I, S77T, T94S, I107F
notes: as for B1
B11: 75110_01N04A (antibody, V domains shown)
VH: B7 VH with S31N, I34M, Y100D, Y101F, M105L
VL: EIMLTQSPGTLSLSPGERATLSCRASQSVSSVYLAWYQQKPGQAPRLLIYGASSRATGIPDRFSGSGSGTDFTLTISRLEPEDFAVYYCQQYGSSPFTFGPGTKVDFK
notes: as for B1
B12: 75110_01H18A (antibody, V domains shown)
VH: B5 VH with P40S, H53Q, E75K, N83S, L98V, V99I, P104S
VL: B1 VL with S20T, I46L, G50A, L54F, P80T, W96Y, K103R, V104L
notes: as for B1
B13: 75110_03C01A (antibody, V domains shown)
VH: B5 VH with P40S, H53Q, E75K, N76D, N83S, L98V, V99I, P104S, T109S
VL: B1 VL with S20T, K42N, I46L, G50D, L54F, P80T, W96Y, V104L
notes: as for B1
B14: 75110_01J09A (antibody, V domains shown)
VH: B1 VH with A23V, I51T, N52K, N56S, E57D, L68F, S71C, F95Y, S105A, A113T
VL: B1 VL with S20T, T22N, K45N, I46L, Y49F, S67F, T72S, S76T, S77T, Y87H
notes: as for B1
B15: 75110_01L08A (antibody, V domains shown)
VH: QVQLQESGPGLVKPSETLSLTCTVSGGSISHYYWSWIRQPPGKGLEWIGYIHYSGTTNYNPSLKSRVTISVDTSKNQLSLKLRSVTAADTAVYYCARDQGFSSGGMDVWGQGTTVTVSS
VL: not shown
notes: as for B1
B16: 75110_02E08A (antibody, V domains shown)
VH: QVQLQESGPGLVKPSETLSLTCTVSGGSISTYYWTWIRQPAGKGLEWIGRVYTSGDTNYNPSLKSRVAMSLDTSKNQFSLKLSSVTAADTAVYYCARDSGALYSWNYGDAFDIWGQGTMVTVSS
VL: DIQMTQSPSAMSASVGDRVTITCRASQDISNYLAWFQQKPGKVPKRLIYAASSLQSGVPSRFSGSGSGTEFTLTISSLQPEDFATYYCLQHNSYPRTFGQGTKVEIK
notes: as for B1
B17: 75110_08F20A (antibody, V domains shown)
VH: QVQLQESGPGLVKPSETLSLTCSVSGGSISTYYWSWIRQPAGKGLEWIGRICTTENTNYNPSLKSRVTMSIDSSKNQFSLKLSSVTAADTAVYYCARDLERLNYYGMDVWGQGATVTVSS
VL: DIQMTQSPSSLSASVGDRVTITCQASQDISKYLNWYQQKPGIAPKLLIYDASNLETGVPSRFSGSGSGTDFTFTISSLQPEDFATYYCQQYDSLPITFGQGTRLEIK
notes: Tested as antibody purified from AlivaMab Mouse hybridoma supernatant (human variable domains, kappa; mouse Fc, captured on anti-mouse IgG Fc sensors); also called ADS75110 purified AMM Ab
B18: 75110_08G08A (antibody, V domains shown)
VH: B17 VH
VL: B17 VL with K31N, F83I
notes: as for B17
B19: 75110_10K21A (antibody, V domains shown)
VH: EVQLVESGGGLVQPGGSLRLSCAASGFTFSSYWMTWVRQAPGKGLEWVANIKQDGSEKYYVDSVKGRFTISRDNAKNSLYLQMNSLRAEDTAVYYCVRDRYDALDIWGQGTMVTVSS
VL: AIQMTQSPSSLSASVGDRVTITCRASQGIRNDLNWYQQKPGKAPKLLIYAASSLQSGVPSRFSGSGSGTDFTLTISSLQAEDFATYYCLKDYNYPYTFGQGTKLEIK
notes: as for B17
B20: 75110_12K21A (antibody, V domains shown)
VH: B5 VH with Y25S, Y59C, E75N, N83S, L98V, V99L, W101Y, P104Y
VL: DIQMTQSPSSVSASVGDRVTITCRASPDIANWLAWYQQKPGKAPELLIYAASSLQSGVPSRFSGSGSGTDFTLTISSLQPEDFATYFCQQANSFPLTFGGGTKVESK
notes: as for B17
B21: 75110_13C13A (antibody, V domains shown)
VH: B5 VH with Y25S, Y59C, E75K, N83S, V92M, L98V, V99L, W101F, P104Y
VL: B20 VL with S7T, D28G, A30S
notes: as for B17
B22: 75110_13P21A (antibody, V domains shown)
VH: B5 VH with Y25S, Y59C, E75N, N83S, L98V, V99L, W101Y, P104Y
VL: B20 VL
notes: as for B17
B23: 75110_14I16A (antibody, V domains shown)
VH: QVQLQESGPGLVKPSETLSLTCTVSNGSISSYYWSWIRQSAGKGLEWIGRIYTSGSTNYNPSLKSRVTMLVDTSKNQFSLKLSSVTAADTAVYYCARDREDYYYYGMDVWGQGTTVTVSS
VL: DIQMTQSPSSLSASVGDRVTITCQASHDISNYLNWYQQKPGKAPKLLLYYASNLETGVPSRFSGSGSGTDFTFTITSLQPEDIGTYSCQQYDNLPLTFGGGTKVEIK
notes: as for B17
B24: 75110_14N19A (antibody, V domains shown)
VH: B17 VH with S23T, T31R, T54S, T57P, S62A, I71V, S73T, D98E, A114T
VL: B17 VL with S7F, K31N, I42K, T56S, S65R, Y86F, S93T
notes: as for B17

Tests used:
[1] = target: T1, Rhesus macaque CD4-HIS (Acro Biosystems, Cat. CD4-C52H7) (rhesus macaque, UniProt P16003 26-390); assay: BLI Octet, mAb on anti-mouse Fc sensor, rhesus CD4-HIS 25-100 nM, 1:1 global fit;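 note: purified antibodies captured at 10 µg/mL, rhesus CD4 analyte run as a three-concentration serial dilution, irrelevant antibody as reference control, one kinetic constant set per antibody from global fitting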
T1 construct: Bought reagent; also called Rhesus CD4; rhesus CD4-HIS; not shown: His tag

[2] = target: T2, Rhesus macaque CD4-HIS (Acro Biosystems, Cat. CD4-C52H7) (rhesus macaque, UniProt P16003 26-390); assay: BLI (Octet Red384); Ab on anti-mouse Fc (AMC) sensor; rhesus CD4-HIS 100/50/25 nM; global 1:1 fit;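 note: antibodies loaded at 10 µg/mL, an unrelated mouse-derived antibody served as internal reference, curves fit over association and dissociation phases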
T2 construct: Bought reagent; also called Rhesus CD4; rhesus CD4-HIS; not shown: His tag

Row | Binder | Kd [1] | Response [1] | koff [1] | kon [1] | Kd [2] | Response [2] | koff [2] | kon [2]
1 | B1 | 7.8 nM | 0.39 | 0.001 s⁻¹ | 130000 M⁻¹ s⁻¹ |  |  |  | 
2 | B2 | 14 nM | 0.29 | 0.0026 s⁻¹ | 190000 M⁻¹ s⁻¹ |  |  |  | 
3 | B3 | 12 nM | 0.1 | 0.002 s⁻¹ | 160000 M⁻¹ s⁻¹ |  |  |  | 
4 | B4 | 48 nM | 0.17 | 0.0032 s⁻¹ | 67000 M⁻¹ s⁻¹ |  |  |  | 
5 | B5 | 340 nM | 0.08 | 0.064 s⁻¹ | 190000 M⁻¹ s⁻¹ |  |  |  | 
6 | B6 | 72 nM | 0.08 | 0.016 s⁻¹ | 220000 M⁻¹ s⁻¹ |  |  |  | 
7 | B7 | 7.2 nM | 0.04 | 0.0011 s⁻¹ | 150000 M⁻¹ s⁻¹ |  |  |  | 
8 | B8 | 0.98 nM | 0.1 | 0.00014 s⁻¹ | 140000 M⁻¹ s⁻¹ |  |  |  | 
9 | B9 | 64 nM | 0.03 | 0.0018 s⁻¹ | 28000 M⁻¹ s⁻¹ |  |  |  | 
10 | B10 | 22 nM | 0.05 | 0.0017 s⁻¹ | 79000 M⁻¹ s⁻¹ |  |  |  | 
11 | B11 | 0.035 nM | 0.02 | 0.0061 s⁻¹ | 1.7e+08 M⁻¹ s⁻¹ |  |  |  | 
12 | B12 | 130 nM | 0.11 | 0.017 s⁻¹ | 130000 M⁻¹ s⁻¹ |  |  |  | 
13 | B13 | 9.8 nM | 0.18 | 0.0027 s⁻¹ | 280000 M⁻¹ s⁻¹ |  |  |  | 
14 | B14 | 70 nM | 0.17 | 0.0032 s⁻¹ | 46000 M⁻¹ s⁻¹ |  |  |  | 
15 | B15 | 8.1 nM | 0.06 | 0.0011 s⁻¹ | 140000 M⁻¹ s⁻¹ |  |  |  | 
16 | B16 | 12 nM | 0.04 | 0.00091 s⁻¹ | 79000 M⁻¹ s⁻¹ |  |  |  | 
17 | B17 |  |  |  |  | 11 nM | 0.22 | 0.0026 s⁻¹ | 230000 M⁻¹ s⁻¹
18 | B18 |  |  |  |  | 19 nM | 0.15 | 0.0041 s⁻¹ | 220000 M⁻¹ s⁻¹
19 | B19 |  |  |  |  | 2.1 nM | 0.23 | 0.00033 s⁻¹ | 160000 M⁻¹ s⁻¹
20 | B20 |  |  |  |  | 21 nM | 0.16 | 0.0056 s⁻¹ | 270000 M⁻¹ s⁻¹
21 | B21 |  |  |  |  | 8.3 nM | 0.09 | 0.0046 s⁻¹ | 550000 M⁻¹ s⁻¹
22 | B22 |  |  |  |  | 75 nM | 0.11 | 0.013 s⁻¹ | 170000 M⁻¹ s⁻¹
23 | B23 |  |  |  |  | 14 nM | 0.13 | 0.0027 s⁻¹ | 190000 M⁻¹ s⁻¹
24 | B24 |  |  |  |  | 14 nM | 0.17 | 0.0021 s⁻¹ | 150000 M⁻¹ s⁻¹
